According to publication PMC6706451, “Crystal structure and substrate-induced activation of ADAMTS13” (Nature Communications, 2019):

Tests used:
VWF96-MP = VWF96-MP (human, UniProt P04275 1573-1668, L1603N); assay: ELISA
VWF96-Spacer = VWF96-Spacer (human, UniProt P04275 1573-1668, L1664T | V1665N | L1666Q); assay: ELISA
ADAMTS13 = biological target: T1, ADAMTS13 (human, UniProt Q76LX8 75-1427); assay: ELISA; plate binding: 100 nM VWF96 or variant adsorbed on 96-well plates (50 mM sodium bicarbonate pH 9.6, overnight, 4 °C); 0-600 nM ADAMTS13 in PBS/1% BSA/80 mM EDTA, room temperature, 1.5 h (legend: 1 h); detected with biotinylated anti-ADAMTS13 TSP2-4 polyclonal antibody; one-site fit; apparent KD; settings: one partner purified
T1 construct: ADAMTS13, recombinant; holds TSP2-4 (detected with an anti-ADAMTS13 TSP2-4 polyclonal antibody); The introduction says the short propeptide is removed before secretion; also called recombinant ADAMTS13
T1 sequence (looked up): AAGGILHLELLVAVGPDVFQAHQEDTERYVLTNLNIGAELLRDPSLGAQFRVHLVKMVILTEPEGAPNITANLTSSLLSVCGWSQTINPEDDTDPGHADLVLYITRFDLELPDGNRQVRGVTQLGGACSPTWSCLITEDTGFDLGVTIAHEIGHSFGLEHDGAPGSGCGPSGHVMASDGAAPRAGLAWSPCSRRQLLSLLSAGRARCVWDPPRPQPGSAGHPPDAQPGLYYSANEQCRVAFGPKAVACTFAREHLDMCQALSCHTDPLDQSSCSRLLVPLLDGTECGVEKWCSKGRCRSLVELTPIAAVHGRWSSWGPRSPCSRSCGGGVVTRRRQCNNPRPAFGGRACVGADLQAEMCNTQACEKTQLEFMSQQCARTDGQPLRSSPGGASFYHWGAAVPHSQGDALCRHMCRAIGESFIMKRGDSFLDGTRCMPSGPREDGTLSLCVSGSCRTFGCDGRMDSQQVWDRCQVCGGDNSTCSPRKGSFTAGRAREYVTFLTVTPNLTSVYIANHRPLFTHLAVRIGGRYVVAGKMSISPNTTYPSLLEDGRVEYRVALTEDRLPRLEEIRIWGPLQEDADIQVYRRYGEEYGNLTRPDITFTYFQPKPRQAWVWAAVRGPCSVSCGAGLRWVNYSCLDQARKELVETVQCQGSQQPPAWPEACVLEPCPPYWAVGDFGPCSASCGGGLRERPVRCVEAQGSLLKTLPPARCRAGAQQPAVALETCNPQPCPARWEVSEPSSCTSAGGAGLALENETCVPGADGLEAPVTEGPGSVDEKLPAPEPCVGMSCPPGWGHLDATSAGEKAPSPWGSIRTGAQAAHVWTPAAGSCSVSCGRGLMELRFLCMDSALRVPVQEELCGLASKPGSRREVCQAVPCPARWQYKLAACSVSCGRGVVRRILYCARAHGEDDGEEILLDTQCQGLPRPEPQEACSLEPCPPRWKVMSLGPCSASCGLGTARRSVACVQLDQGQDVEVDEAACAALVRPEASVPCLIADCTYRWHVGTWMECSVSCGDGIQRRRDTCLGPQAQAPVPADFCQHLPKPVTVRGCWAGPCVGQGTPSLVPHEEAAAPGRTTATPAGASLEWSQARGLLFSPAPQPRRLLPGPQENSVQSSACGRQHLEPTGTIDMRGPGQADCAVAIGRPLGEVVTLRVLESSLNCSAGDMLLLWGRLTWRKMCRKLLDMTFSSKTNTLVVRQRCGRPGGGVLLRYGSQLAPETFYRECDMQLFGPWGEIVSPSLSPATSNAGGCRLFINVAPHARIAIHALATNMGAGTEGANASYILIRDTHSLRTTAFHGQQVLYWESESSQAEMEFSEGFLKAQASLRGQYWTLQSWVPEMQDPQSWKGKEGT

ADAMTS13 MDTCS(E225Q) = biological target: T2, ADAMTS13 MDTCS(E225Q) (human, UniProt Q76LX8 78-682, E225Q, N-linked glycans at Asn142, Asn146, Asn552, Asn579, Asn614, Asn667 and an O-linked glycan on Ser399 (seen in the structure)); assay: ITC; 27 μM MDTCS(E225Q) in the cell, injections of 279 μM tag-free VWF73; 20 mM HEPES pH 7.5, 150 mM NaCl, 5 mM CaCl2; 25 °C; mean of four experiments; settings: both partners purified
T2 construct: Drosophila BiP signal cleaved off to give the native N terminus Gly78; Vector pMT-BiP-PURO; also called MDTCS(E225Q) active-site mutant; not shown: 6xHis, C-terminal, kept
T2 sequence (looked up): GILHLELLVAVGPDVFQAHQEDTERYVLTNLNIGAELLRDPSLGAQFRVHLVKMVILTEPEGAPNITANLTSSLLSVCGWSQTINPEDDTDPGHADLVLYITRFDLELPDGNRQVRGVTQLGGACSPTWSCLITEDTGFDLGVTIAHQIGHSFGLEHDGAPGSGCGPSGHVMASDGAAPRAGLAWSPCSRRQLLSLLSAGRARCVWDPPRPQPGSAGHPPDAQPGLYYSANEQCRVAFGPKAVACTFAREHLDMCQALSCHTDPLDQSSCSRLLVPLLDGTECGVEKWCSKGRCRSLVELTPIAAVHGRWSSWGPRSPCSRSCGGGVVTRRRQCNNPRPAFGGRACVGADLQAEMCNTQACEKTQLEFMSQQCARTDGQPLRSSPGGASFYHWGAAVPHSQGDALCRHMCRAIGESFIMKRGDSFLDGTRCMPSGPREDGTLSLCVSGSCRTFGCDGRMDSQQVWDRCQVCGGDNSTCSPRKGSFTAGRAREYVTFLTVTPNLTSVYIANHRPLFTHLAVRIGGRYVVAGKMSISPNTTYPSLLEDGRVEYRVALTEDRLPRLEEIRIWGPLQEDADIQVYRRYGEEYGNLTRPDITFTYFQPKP

B1: ADAMTS13 (enzyme)
chain: AAGGILHLELLVAVGPDVFQAHQEDTERYVLTNLNIGAELLRDPSLGAQFRVHLVKMVILTEPEGAPNITANLTSSLLSVCGWSQTINPEDDTDPGHADLVLYITRFDLELPDGNRQVRGVTQLGGACSPTWSCLITEDTGFDLGVTIAHEIGHSFGLEHDGAPGSGCGPSGHVMASDGAAPRAGLAWSPCSRRQLLSLLSAGRARCVWDPPRPQPGSAGHPPDAQPGLYYSANEQCRVAFGPKAVACTFAREHLDMCQALSCHTDPLDQSSCSRLLVPLLDGTECGVEKWCSKGRCRSLVELTPIAAVHGRWSSWGPRSPCSRSCGGGVVTRRRQCNNPRPAFGGRACVGADLQAEMCNTQACEKTQLEFMSQQCARTDGQPLRSSPGGASFYHWGAAVPHSQGDALCRHMCRAIGESFIMKRGDSFLDGTRCMPSGPREDGTLSLCVSGSCRTFGCDGRMDSQQVWDRCQVCGGDNSTCSPRKGSFTAGRAREYVTFLTVTPNLTSVYIANHRPLFTHLAVRIGGRYVVAGKMSISPNTTYPSLLEDGRVEYRVALTEDRLPRLEEIRIWGPLQEDADIQVYRRYGEEYGNLTRPDITFTYFQPKPRQAWVWAAVRGPCSVSCGAGLRWVNYSCLDQARKELVETVQCQGSQQPPAWPEACVLEPCPPYWAVGDFGPCSASCGGGLRERPVRCVEAQGSLLKTLPPARCRAGAQQPAVALETCNPQPCPARWEVSEPSSCTSAGGAGLALENETCVPGADGLEAPVTEGPGSVDEKLPAPEPCVGMSCPPGWGHLDATSAGEKAPSPWGSIRTGAQAAHVWTPAAGSCSVSCGRGLMELRFLCMDSALRVPVQEELCGLASKPGSRREVCQAVPCPARWQYKLAACSVSCGRGVVRRILYCARAHGEDDGEEILLDTQCQGLPRPEPQEACSLEPCPPRWKVMSLGPCSASCGLGTARRSVACVQLDQGQDVEVDEAACAALVRPEASVPCLIADCTYRWHVGTWMECSVSCGDGIQRRRDTCLGPQAQAPVPADFCQHLPKPVTVRGCWAGPCVGQGTPSLVPHEEAAAPGRTTATPAGASLEWSQARGLLFSPAPQPRRLLPGPQENSVQSSACGRQHLEPTGTIDMRGPGQADCAVAIGRPLGEVVTLRVLESSLNCSAGDMLLLWGRLTWRKMCRKLLDMTFSSKTNTLVVRQRCGRPGGGVLLRYGSQLAPETFYRECDMQLFGPWGEIVSPSLSPATSNAGGCRLFINVAPHARIAIHALATNMGAGTEGANASYILIRDTHSLRTTAFHGQQVLYWESESSQAEMEFSEGFLKAQASLRGQYWTLQSWVPEMQDPQSWKGKEGT
Q: B1 was tested. Which Kd (VWF96-MP) did it give?
A: The Kd was 65 nM.

Q: And the Kd (VWF96-Spacer)?
A: Its Kd is 241 nM.

B2: VWF96 (VWF A2 domain fragment Gly1573-Arg1668 with N-terminal 6xHis-SUMO tag and C-terminal HSV-6xHis tag) (domain or fragment)
chain: GNRTNTGLALRYLSDHSFLVSQGDREQAPNLVYMVTGNPASDEIKRLPGDIQVVPIGVGPNANVQELERIGWPNAPILIQDFETLPREAPDLVLQR
notes: von Willebrand factor, A2 domain fragment, residues Gly1573-Arg1668 (96 amino acids); SUMO tag is a derivative of yeast Smt3 (13 kDa, Invitrogen); Vector pET25b(+); About 32 kDa with tags; also called wild-type VWF96; source: E. coli BL21 (DE3), purified (Ni2+ HiTrap Chelating HP, Capto Q ImpRes); not shown: 6xHis-SUMO, N-terminal, kept; HSV-6xHis, C-terminal, kept
Q: For B2, which Kd (ADAMTS13) is on record?
A: The Kd was 40 nM.

B3: VWF96-Dis (domain or fragment, human, UniProt P04275 1573-1668, looked up)
chain: GNRTNTGLALRYLSDHSFLVSQGDREQAPNLVYMVTGNPASAEQEELPGTIQVVPIGVGPNANVQELERIGWPNAPILIQDFETLPREAPDLVLQR
notes: Variant of the VWF96 vector; source: E. coli BL21 (DE3), purified (Ni2+ HiTrap Chelating HP, Capto Q ImpRes); not shown: 6xHis-SUMO, N-terminal, kept; HSV-6xHis, C-terminal, kept
Q: For B3, which Kd (ADAMTS13) is on record?
A: Its Kd is 615 nM.

B4: VWF96-Cys (domain or fragment, human, UniProt P04275 1573-1668, looked up)
chain: GNRTNTGLALRYLSDHSFLVSQGDREQAPNLVYMVTGNPASDEIKRLPGDIQVVPIGVGPNANVQELERQGYPNSPQQQQDFETLPREAPDLVLQR
notes: as for B3
Q: How did the Kd (ADAMTS13) turn out when B4 was run?
A: The Kd was 632 nM.

B5: VWF87(ΔSpacer) (domain or fragment)
chain: GNRTNTGLALRYLSDHSFLVSQGDREQAPNLVYMVTGNPASDEIKRLPGDIQVVPIGVGPNANVQELERIGWPNAPILIQDFETLPR
notes: von Willebrand factor, A2 domain fragment: VWF96 (Gly1573-Arg1668) with residues Glu1660-Arg1668 deleted, 87 amino acids; Variant of the VWF96 vector; the C-terminal HSV-6xHis tag follows residue 1659; source: E. coli BL21 (DE3), purified (Ni2+ HiTrap Chelating HP, Capto Q ImpRes); not shown: 6xHis-SUMO, N-terminal, kept; HSV-6xHis, C-terminal, kept
Q: With B5 as the binder, how does the Kd (ADAMTS13) read?
A: Its Kd is 475 nM.

B6: VWF73 (tag-free VWF A2 domain fragment Asp1596-Arg1668) (domain or fragment)
chain: DREQAPNLVYMVTGNPASDEIKRLPGDIQVVPIGVGPNANVQELERIGWPNAPILIQDFETLPREAPDLVLQR
notes: von Willebrand factor, human, A2 domain fragment, residues Asp1596-Arg1668 (73 amino acids); Vector pET-SUMO; also called tag-free VWF73; source: E. coli One Shot BL21 Star (DE3), purified as VWF96; His-SUMO tag removed with SUMO protease-1, passed over Ni2+ column; not shown: 6xHis-SUMO, N-terminal, cleaved
Q: With B6 as the binder, how does the Kd (ADAMTS13 MDTCS(E225Q)) read?
A: Its Kd is 450 nM.
